Biological target: SARS-CoV-2 刺突RBD蛋白 (Sinobiological) (SARS-CoV-2, UniProt P0DTC2 319-541)

Row | Binder | EC50 | IC50
1 | A46抗体 (antibody, V domains shown, also called 抗体A46) VH: EVQLLESGGGLIQPGGSLRLSCAVSEFIVSRNYMSWVRQAPGKGLEWVSVLYPGGSTFYADSVKGRFTISRDESTNTLFLQMNTLRVEDTAVYYCARDFGDFYFDFWGQGTLVTVSS VL: EIVLTQSPGTLSLSPGQRAALSCRASQSVSTYLAWYQQKPGQAPRLLIHDASSRASGVPDRFSGTGSGTDFTLTITRLEPEDFAVYYCQQYGTSPRTFGQGTKLEIK | 0.0355 µg/mL | 0.703 µg/mL
2 | A70抗体 (antibody, V domains shown, also called 抗体A70) VH: QITLKESGPTLVKPTQTLTLTCTFSGFSLDTPGVAIGWIRQPPGRALEWLGLIYWDGDERYNPSLTSRVTLTKDTSKNQVVLTMTNVDSVDTGTYFCGHKTIPTIFGVWGQGAPVTVSS VL: QSALTQPASVSGSPGQSITISCAATSGDFGVFNYVSWYQQHPGKAPKLIIFEVSSRPSGVSNRFSGSKSGNTASLTVSGLQAEDEAVYHCSSYSTSSVVFGGGTKLTVL | 0.0511 µg/mL | 0.515 µg/mL

Source: patent publication CN115975019A (INST PATHOGEN BIOLOGY CAMS, dated 2023)
